The record followed here is IntAct's records for PubMed 36402845.

To fix the notation:
B1: Exostosin-1 (Homo sapiens), Q16394 (parent)
chain: MQAKKRYFILLSAGSCLALLFYFGGLQFRASRSHSRREEHSGRNGLHHPSPDHFWPRFPDALRPFVPWDQLENEDSSVHISPRQKRDANSSIYKGKKCRMESCFDFTLCKKNGFKVYVYPQQKGEKIAESYQNILAAIEGSRFYTSDPSQACLFVLSLDTLDRDQLSPQYVHNLRSKVQSLHLWNNGRNHLIFNLYSGTWPDYTEDVGFDIGQAMLAKASISTENFRPNFDVSIPLFSKDHPRTGGERGFLKFNTIPPLRKYMLVFKGKRYLTGIGSDTRNALYHVHNGEDVVLLTTCKHGKDWQKHKDSRCDRDNTEYEKYDYREMLHNATFCLVPRGRRLGSFRFLEALQAACVPVMLSNGWELPFSEVINWNQAAVIGDERLLLQIPSTIRSIHQDKILALRQQTQFLWEAYFSSVEKIVLTTLEIIQDRIFKHISRNSLIWNKHPGGLFVLPQYSSYLGDFPYYYANLGLKPPSKFTAVIHAVTPLVSQSQPVLKLLVAAAKSQYCAQIIVLWNCDKPLPAKHRWPATAVPVVVIEGESKVMSSRFLPYDNIITDAVLSLDEDTVLSTTEVDFAFTVWQSFPERIVGYPARSHFWDNSKERWGYTSKWTNDYSMVLTGAAIYHKYYHYLYSHYLPASLKNMVDQLANCEDILMNFLVSAVTKLPPIKVTQKKQYKETMMGQTSRASRWADPDHFAQRQSCMNTFASWFGYMPLIHSQMRLDPVLFKDQVSILRKKYRDIERL
partner: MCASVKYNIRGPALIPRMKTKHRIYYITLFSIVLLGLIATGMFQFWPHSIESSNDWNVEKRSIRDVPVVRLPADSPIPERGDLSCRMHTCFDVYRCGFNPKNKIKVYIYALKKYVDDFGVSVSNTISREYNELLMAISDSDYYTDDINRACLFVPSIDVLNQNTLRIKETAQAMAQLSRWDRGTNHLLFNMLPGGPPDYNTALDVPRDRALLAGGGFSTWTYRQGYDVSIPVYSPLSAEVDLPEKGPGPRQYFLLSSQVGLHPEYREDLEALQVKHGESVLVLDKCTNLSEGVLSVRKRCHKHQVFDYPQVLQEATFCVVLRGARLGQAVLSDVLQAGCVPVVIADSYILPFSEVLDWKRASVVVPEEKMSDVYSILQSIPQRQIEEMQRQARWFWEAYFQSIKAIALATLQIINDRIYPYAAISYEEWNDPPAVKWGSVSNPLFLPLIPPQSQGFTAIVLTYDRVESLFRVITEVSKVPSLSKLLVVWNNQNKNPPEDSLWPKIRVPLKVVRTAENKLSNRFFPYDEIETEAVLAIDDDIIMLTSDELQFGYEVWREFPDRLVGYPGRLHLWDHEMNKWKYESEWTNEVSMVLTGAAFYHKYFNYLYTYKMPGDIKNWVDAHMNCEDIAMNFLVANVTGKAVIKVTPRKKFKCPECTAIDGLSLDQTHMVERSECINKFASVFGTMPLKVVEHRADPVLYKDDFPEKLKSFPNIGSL
B2: Exostosin-2 (Homo sapiens), Q93063 (parent)
chain: B1 partner
partner: B1 chain

In the first assay the parent is B1. To be noted: with ext2_human EXT2, Q93063.
In the case of R346A, the “effect of a mutation on the interaction” value is on record as “with no effect”.
On to D565N;D567N, for which the “effect of a mutation on the interaction” value is “decreasing interaction strength”.
Regarding D162N;D164N, the “effect of a mutation on the interaction” value is “with no effect”.
The same measure, in the same setting: as for R280A, the entry is “with no effect”.

Variants of B2 are the subject of a further assay. To be noted: with ext1_human EXT1, Q16394.
Regarding D538N;D540N, the “effect of a mutation on the interaction” value is “with no effect”.
R266A: the “effect of a mutation on the interaction” value is reported as “with no effect”.
